Assay results: patent US20240003906A1, “Biomarker of Fibrosis” (Nordic Bioscience A/S, priority 2020, published 2024)
Where no end group is shown, it is not given here.

Experiments:
[1] = target: T1, Truncated peptide KAGGFAPYY; assay: indirect competitive ELISA (final inhibition)
T1 peptide: KAGGFAPYY

[2] = target: T2, Elongated peptide KAGGFAPYYGD; assay: indirect competitive ELISA (final inhibition)
T2 peptide: KAGGFAPYYGD

[3] = target: T3, Selection peptide KAGGFAPYYG (human); assay: indirect competitive ELISA, selection peptide competing with coated biotin-KAGGFAPYYG
T3 construct: Synthetic monomeric peptide (Genscript); also called human selection peptide
T3 peptide: KAGGFAPYYG

[4] = target: T4, Dimeric truncated peptide CKAGGFAPYY x CKAGGFAPYY (also: homodimer linked by Cys1 disulphide, disulfide at 1, other end not in the chain); assay: direct sandwich ELISA, NBH-242 as capture and detection antibody
T4 peptide: CKAGGFAPYY
Protocol: (§1) Unbound primary antibody and sample was discarded, and the wells were washed with washing buffer. Subsequently, 100 μL chemiluminescence substrate was added to the wells, plates were incubated for 3 minutes at 20° C. in the dark rotating 300 rpm. Finally, the luminescence emitted was quantified with an ELISA reader (VersaMAX; Molecular Devices, Wokingham Berkshire, UK) set to measure the luminescence at 450 nm and 650 nm. […] Unknown sample measurements were interpolated with the standard curve to obtain the concentration (ng/mL) of the CTX-III fragment.
(§2) By plotting the calculated percentage recovery, the specificity of the antibodies in the direct sandwich ELISA towards the dimeric peptides was tested.

[5] = target: T5, Rat dimeric peptide CKSGGFSPYYG x CKSGGFSPYYG (rat, also: homodimer cross-linked by disulphide N-terminal to antibody binding site, disulfide at 1, other end not in the chain); assay: as above
T5 construct: also called dimeric rat peptide; rat selection peptide
T5 peptide: CKSGGFSPYYG
Protocol: as §1, §2

[6] = target: T6, Dimeric elongated peptide CKAGGFAPYYGD x CKAGGFAPYYGD (also: homodimer linked by Cys1 disulphide, disulfide at 1, other end not in the chain); assay: as above
T6 peptide: CKAGGFAPYYGD
Protocol: as §1, §2

[7] = target: T7, Dimeric selection peptide CKAGGFAPYYG x CKAGGFAPYYG (human, also: homodimer linked by Cys1 disulphide, disulfide at 1, other end not in the chain); assay: as above
T7 construct: Synthetic dimer of two identical strands; standard of the sandwich ELISA; also called dimeric human selection peptide
T7 peptide: CKAGGFAPYYG
Protocol: as §1, §2

[8] = target: T8, Rat dimeric peptide (CKSGGFSPYYG×CKSGGFSPYYG) (Rattus norvegicus, UniProt P13941); assay: Direct sandwich ELISA specificity towards dimeric peptides; assay type: binding; details: NBH-242 as capture and detection antibody, FIG. 3
T8 construct: purchased Genscript, Piscataway, NJ, USA; host or cells: synthetic peptide
Protocol: (§3) 96-well plates precoated with streptavidin (Roche Diagnostic's, Hvidovre, Denmark, cat. No. 11940279) were coated with 100 μL of the biotinylated antibody targeting the CTX-III fragment diluted 1+100 in assay buffer (50 mM PBS, 1% BSA, 1% Tween-20, 150 mM NaCl, pH 7.4) for 30 minutes at room temperature rotating at 300 rounds-per-minute (rpm). Unbound biotinylated capture antibody was discarded, and the wells were washed with washing buffer (25 mM TRIZMA, 50 mM NaCl, 0.036% Bronidox L5, 0.1% Tween 20) using a standardized ELISA plate washing machine (BioTek® Instruments, Microplate washer, ELx405 Select CW, Winooski, USA). All samples and the detection antibody were diluted in incubation buffer (50 mM PBS, 1% BSA, 1% Tween-20, 150 mM NaCl, 5% Liquid II, pH 7.4), with the detection antibody being diluted 1+100. 20 μL of sample material and controls were incubated with 100 μL HRP labelled detection antibody targeting the CTX-III fragment, at 4° C. for 20 hours and agitated at 300 rpm. […] Finally, the luminescence emitted was quantified with an ELISA reader (VersaMAX; Molecular Devices, Wokingham Berkshire, UK) set to measure the luminescence at 450 nm and 650 nm. […]
(§4) The lower limit of detection (LLOD) was determined from 21 zero samples (i.e. incubation buffer) and calculated as the mean+3× standard deviation, whereas the upper limit of detection (ULOD) was determined from 10 measurements of the dimeric selection peptide calculated as the mean+3× standard deviation. The inter- and intra-assay variation was determined by 10 independent runs of five quality control (QC) samples with minimum three of these being healthy human plasma EDTA samples (Valley Biomedical, Winchester, VA, USA), with each run consisting of double determinations of the samples. […] Assay linearity was determined by calculating the percentage recovery (100%±20%) of a 1:6-fold dilution of healthy human plasma EDTA samples with a significant concentration, using the undiluted sample as reference. […] Subsequently, the percentage recovery between the control sample and the low or high interferent samples were calculated.

[9] = target: T9, dimeric truncated peptide (CKAGGFAPYY×CKAGGFAPYY (SEQ ID NO: 18)) (Homo sapiens, UniProt P02461); assay: as above; assay type: binding; details: NBH-242 as capture and detection antibody, FIG. 3
T9 construct: purchased Genscript, Piscataway, NJ, USA; host or cells: synthetic peptide
Protocol: as §3, §4

[10] = target: T10, dimeric elongated peptide (CKAGGFAPYYGD×CKAGGFAPYYGD (SEQ ID NO: 17)) (Homo sapiens, UniProt P02461); assay: as above; assay type: binding; details: NBH-242 as capture and detection antibody, FIG. 3
T10 construct: purchased Genscript, Piscataway, NJ, USA; host or cells: synthetic peptide
Protocol: as §3, §4

| Molecule | binding result [1] | binding result [2] | binding result [3] | binding result [4] | binding result [5] | binding result [6] | binding result [7] | reactivity towards the dimeric rat peptide [8] | reactivity towards the dimeric truncated peptide [9] | reactivity towards the dimeric elongated peptide [10] |
| --- | --- | --- | --- | --- | --- | --- | --- | --- | --- | --- |
| monoclonal antibody NBH-242 (antibody, mouse IgG2a, kappa, V domains shown, In the sandwich ELISA the antibody was biotinylated (capture) and HRP-labelled (detection); also called monoclonal NBH-242 antibody; capture antibody) VH: QVQLQQSGAELVRPGVSVKISCKGSGHTFTDHGMHWVKQSQAKSLEWIGVISTYYGDATYNQKFKGKATMTVDKSSSTAYMELARLTSEDSAIYYCARSMGGNYVGTGFAYWGQGTLVTVSA VL: DIVMTQAAPSVPVTPGESVSISCRSSKSLLHSNGNTYLYWFLQRPGQSPQLLIYRMSNLASGVPDRFSGSGSGTAFTLRISRVEAEDVGVYYCMQHLEFPLTFGAGTKLELKR | no binding | no binding | binds | no binding | no binding | no binding | binds |  |  |  |
| NBH-242: neo-epitope specific antibody directed towards the C-terminal neo-epitope in the C-terminal telopeptide of type III collagen (CT-III), …-COOH (antibody) heavy: QVQLQQSGAELVRPGVSVKISCKGSGHTFTDHGMHWVKQSQAKSLEWIGVISTYYGDATYNQKFKGKATMTVDKSSSTAYMELARLTSEDSAIYYCARSMGGNYVGTGFAYWGQGTLVTVSAAKTTAPSVYPLAPVCGDTTGSSVTLGCLVKGYFPEPVTLTWNSGSLSSGVHTFPAVLQSDLYTLSSSVTVTSSTWPSQSITCNVAHPASSTKVDKKIEPRGPTIKPCPPCKCPAPNLLGGPSVFIFPPKIKDVLMISLSPIVTCVVVDVSEDDPDVQISWFVNNVEVHTAQTQTHREDYNSTLRVVSALPIQHQDWMSGKEFKCKVNNKDLPAPIERTISKPKGSVRAPQVYVLPPPEEEMTKKQVTLTCMVTDFMPEDIYVEWTNNGKTELNYKNTEPVLDSDGSYFMYSKLRVEKKNWVERNSYSCSVVHEGLHNHHTTKSFSRTPGK light: DIVMTQAAPSVPVTPGESVSISCRSSKSLLHSNGNTYLYWFLQRPGQSPQLLIYRMSNLASGVPDRFSGSGSGTAFTLRISRVEAEDVGVYYCMQHLEFPLTFGAGTKLELKRADAAPTVSIFPPSSEQLTSGGASVVCFLNNFYPKDINVKWKIDGSERQNGVLNSWTDQDSKDSTYSMSSTLTLTKDEYERHNSYTCEATHKTSTSPIVKSFNRNE |  |  |  |  |  |  |  | no reactivity | no reactivity | no reactivity |
